In publication PMC3823011:

What was measured:
[1] = biological target: CmTic110C (Cyanidioschyzon merolae 10D); test: SEC + other: small-angle X-ray scattering
[2] = biological target: CmTic110B (Cyanidioschyzon merolae 10D); test: SEC + other: small-angle X-ray scattering

stoichiometry N [1] | stoichiometry N [2] | Substance
2 |  | CmTic110C (domain or fragment)
 | 2 | CmTic110B (domain or fragment)
